Source: patent publication US20240034774A1

What was measured:
Assay in all cases: cell-based or functional assay
[1] = molecular target: HIV-1 envelope glycoprotein gp120 of virus 92US727 (HIV-1)
[2] = molecular target: HIV-1 envelope glycoprotein gp120 of virus 7141 (HIV-1)
[3] = molecular target: HIV-1 envelope glycoprotein gp120 of virus VS001 (HIV-1)
[4] = molecular target: 152 patient-derived subtype B viruses obtained from pre-ART plasma
[5] = molecular target: HIV-1 envelope glycoprotein (gp120) of virus VS046 (HIV-1)
[6] = molecular target: HIV-1 envelope glycoprotein (gp120) of virus VS026 (HIV-1)
[7] = molecular target: HIV-1 envelope glycoprotein (gp120) of virus 302076 (HIV-1)
[8] = molecular target: HIV-1 envelope glycoprotein (gp120) of virus REJO (HIV-1)
[9] = molecular target: HIV-1 envelope glycoprotein (gp120) of virus 92US712 (HIV-1)
[10] = molecular target: HIV-1 envelope glycoprotein (gp120) of virus VS030 (HIV-1)
[11] = molecular target: HIV-1 envelope glycoprotein (gp120) of virus 8110 (HIV-1)
[12] = molecular target: HIV-1 envelope glycoprotein (gp120) of virus VS044 (HIV-1)
[13] = molecular target: HIV-1 envelope glycoprotein (gp120) of virus 1413 (HIV-1)
[14] = molecular target: HIV-1 envelope glycoprotein (gp120) of virus 8106 (HIV-1)
[15] = molecular target: HIV-1 envelope glycoprotein (gp120) of virus 1003 (HIV-1)
[16] = molecular target: HIV-1 envelope glycoprotein (gp120) of virus 8176 (HIV-1)
[17] = molecular target: HIV-1 envelope glycoprotein (gp120) of virus 7141 (HIV-1)
[18] = molecular target: HIV-1 envelope glycoprotein (gp120) of virus 7015 (HIV-1)
[19] = molecular target: HIV-1 envelope glycoprotein (gp120) of virus 7552 (HIV-1)
[20] = molecular target: HIV-1 envelope glycoprotein (gp120) of virus 8318 (HIV-1)
[21] = molecular target: HIV-1 envelope glycoprotein (gp120) of virus VS049 (HIV-1)
[22] = molecular target: HIV-1 envelope glycoprotein (gp120) of virus 8320 (HIV-1)
[23] = molecular target: HIV-1 envelope glycoprotein (gp120) of virus 7467 (HIV-1)
[24] = molecular target: HIV-1 envelope glycoprotein (gp120) of virus 92HT593 (HIV-1)
[25] = molecular target: HIV-1 envelope glycoprotein (gp120) of virus CHO77 (HIV-1)
[26] = molecular target: HIV-1 envelope glycoprotein (gp120) of virus 7576 (HIV-1)
[27] = molecular target: HIV-1 envelope glycoprotein (gp120) of virus 7051 (HIV-1)
[28] = molecular target: HIV-1 envelope glycoprotein (gp120) of virus 92US657 (HIV-1)
[29] = molecular target: HIV-1 envelope glycoprotein (gp120) of virus VS043 (HIV-1)
[30] = molecular target: HIV-1 envelope glycoprotein (gp120) of virus 92US727 (HIV-1)
[31] = molecular target: HIV-1 envelope glycoprotein (gp120) of virus VS004 (HIV-1)
[32] = molecular target: HIV-1 envelope glycoprotein (gp120) of virus THRO (HIV-1)
[33] = molecular target: HIV-1 envelope glycoprotein (gp120) of virus VS001 (HIV-1)
[34] = molecular target: HIV-1 envelope glycoprotein (gp120) of virus 8117 (HIV-1)
[35] = molecular target: HIV-1 envelope glycoprotein (gp120) of virus 1489 (HIV-1)
[36] = molecular target: HIV-1 envelope glycoprotein (gp120) of virus VS042 (HIV-1)
[37] = molecular target: HIV-1 envelope glycoprotein (gp120) of virus 7595 (HIV-1)
[38] = molecular target: HIV-1 envelope glycoprotein (gp120) of virus 7103 (HIV-1)
[39] = molecular target: HIV-1 envelope glycoprotein (gp120) of virus VS017 (HIV-1)
[40] = molecular target: HIV-1 envelope glycoprotein (gp120) of virus VS039 (HIV-1)
[41] = molecular target: HIV-1 envelope glycoprotein (gp120) of virus 8134 (HIV-1)
[42] = molecular target: HIV-1 envelope glycoprotein (gp120) of virus 1012 (HIV-1)

B1: 1.1.78-1 (antibody, human IgG1, kappa, V domains shown)
VH: QVQLLQSGAAVTKPGASVRVSCEASGYNIRDYFIHWWRQAPGQGLQWVGWINPKTGQPNNPRQFQGRVSLTRHASWDFDTFSFYMDLKALRSDDTAVYFCARQRSDYWDFDVWGSGTQVTVSS
VL: DIQMTQSPSSLSASVGDTATITCQANGYLNWYQQRRGKAPKLLIYDGSKLERGVPSRFSGRRWGQEYHLTINNLQPEDIATYFCQVYEFFGPGTRLDLKR
For B1, the neutralization IC50 [1] was > 50 µg/mL, the neutralization IC50 [2] was 29.5 µg/mL and the neutralization IC50 [3] was 3.3 µg/mL.

B2: Antibody 1.52.90-1 (antibody, V domains shown)
VH: QVQLLQSGAAVTKPGASVRVSCEASGYNIRDYFIHWWRQAPGQGLQWVGWINPKTGQPNNPRQFQGRVSLTRHASFDFDTFSFYMDLKALRSDDTAVYFCARQRSDYWDFDVWGSGTQVTVSS
VL: DIQMTQSPSSLSASVGDRATITCQANGYLNWYQQRRGKAPKLLIYDGSKLERGVPSRFSGSRWGQEYNLTISSLQPEDIATYFCQVYEFFGPGTRLDLKR
B2 was tested, and the Breadth (% viruses neutralized with an IC95 ≤ 50 µg/mL) [4] was 78%, the Geomean IC95 [4] was 4.56 µg/mL and the Median IC95 [4] was 4.42 µg/mL.

B3: 1.1.102-1 (antibody, human IgG1, kappa, V domains shown)
VH: QVQLLQSGAAVTKPGASVRVSCEASGYNIRDYFIHWWRQAPGQGLQWVGWINPKTGQPNNPRQFQGRVSLTRHASWDFDTFSFYMDLKALRSDDTAVYFCARQRSDYWDFDVWGSGTQVTVSS
VL: DIQMTQSPSSLSASVGDRATITCQANGYLNWYQQRRGKAPKLLIYDGSKLERGVPSRFSGSRWGQEYHLTISSLQPEDIATYFCQVYEFFGPGTRLDLKR
B3 was tested, and the neutralization IC50 [1] was > 50 µg/mL, the neutralization IC50 [2] was 22.7 µg/mL and the neutralization IC50 [3] was 3 µg/mL.

B4: 2.3.17-1 (antibody, human IgG1, kappa, V domains shown)
VH: QVHLSQSGAAVTKPGASVRVSCEASGYNIRDYFIHWWRQAPGQGLQWVGWINPKTGQPNNPRQFQGRVSLTRHASWDFDTFSFYMDLKAVRSDDTAIYFCARQRSDYWDFDVWGSGTQVTVSS
VL: DIQMTQSPSSLSARVGDTATITCQANGYLNWYQQRRGKAPKLLIYDGSKLERGVPARFSGRRWGQEYHLTINNLQPEDVATYFCQVYEFFGPGTRLDLKR
In the case of B4, the neutralization IC50 [1] is reported as > 50 µg/mL, the neutralization IC50 [2] is reported as 31.3 µg/mL and the neutralization IC50 [3] is reported as 4.54 µg/mL.

B5: 2.2.18-1 (antibody, human IgG1, kappa, V domains shown)
VH: QVHLSQSGAAVTKPGASVRVSCEASGYKIRDHFIHWWRQAPGQGLQWVGWINPKTGQPNNPRQFQGRVSLTRHASWDFDTFSFYMDLKAVRSDDTAIYFCARQRSDYWDFDVWGSGTQVTVSS
VL: DIQMTQSPSSLSARVGDRATITCQANGYLNWYQQRRGKAPKLLIYDGSKLERGVPARFSGSRWGQEYHLTISSLQPEDVATYFCQVYEFFGPGTRLDLKR
In the case of B5, the neutralization IC50 [1] is reported as > 34 µg/mL, the neutralization IC50 [2] is reported as 5.04 µg/mL and the neutralization IC50 [3] is reported as 2.51 µg/mL.

B6: 2.2.17-1 (antibody, human IgG1, kappa, V domains shown)
VH: QVHLSQSGAAVTKPGASVRVSCEASGYKIRDHFIHWWRQAPGQGLQWVGWINPKTGQPNNPRQFQGRVSLTRHASWDFDTFSFYMDLKAVRSDDTAIYFCARQRSDYWDFDVWGSGTQVTVSS
VL: DIQMTQSPSSLSARVGDTATITCQANGYLNWYQQRRGKAPKLLIYDGSKLERGVPARFSGRRWGQEYHLTINNLQPEDVATYFCQVYEFFGPGTRLDLKR
B6 was tested, and the neutralization IC50 [1] was > 50 µg/mL, the neutralization IC50 [2] was 6.28 µg/mL and the neutralization IC50 [3] was 4.38 µg/mL.

B7: 3.1.17-1 (antibody, human IgG1, kappa, V domains shown)
VH: QVQLLQSGAAVTKPGASVRVSCEASGYNIRDYFIHWWRQAPGQGLQWVGWINPKTGQPNNPRQFQGRVSLTRHASWDFDTFSFYMDLKALRSDDTAVYFCARQRSDYWDFDVWGSGTQVTVSS
VL: DIQMTQSPSSLSARVGDTATITCQANGYLNWYQQRRGKAPKLLIYDGSKLERGVPARFSGRRWGQEYHLTINNLQPEDVATYFCQVYEFFGPGTRLDLKR
In the case of B7, the neutralization IC50 [1] is reported as > 50 µg/mL, the neutralization IC50 [2] is reported as 25.5 µg/mL and the neutralization IC50 [3] is reported as 2.21 µg/mL.

B8: 3.1.18-1 (antibody, human IgG1, kappa, V domains shown)
VH: QVQLLQSGAAVTKPGASVRVSCEASGYNIRDYFIHWWRQAPGQGLQWVGWINPKTGQPNNPRQFQGRVSLTRHASWDFDTFSFYMDLKALRSDDTAVYFCARQRSDYWDFDVWGSGTQVTVSS
VL: DIQMTQSPSSLSARVGDRATITCQANGYLNWYQQRRGKAPKLLIYDGSKLERGVPARFSGSRWGQEYHLTISSLQPEDVATYFCQVYEFFGPGTRLDLKR
With B8 the neutralization IC50 [1] was > 9.8 µg/mL, the neutralization IC50 [2] was > 9.8 µg/mL and the neutralization IC50 [3] was 3.52 µg/mL.

B9: 2.3.18-1 (antibody, human IgG1, kappa, V domains shown)
VH: QVHLSQSGAAVTKPGASVRVSCEASGYNIRDYFIHWWRQAPGQGLQWVGWINPKTGQPNNPRQFQGRVSLTRHASWDFDTFSFYMDLKAVRSDDTAIYFCARQRSDYWDFDVWGSGTQVTVSS
VL: DIQMTQSPSSLSARVGDRATITCQANGYLNWYQQRRGKAPKLLIYDGSKLERGVPARFSGSRWGQEYHLTISSLQPEDVATYFCQVYEFFGPGTRLDLKR
With B9 the neutralization IC50 [1] was > 23 µg/mL, the neutralization IC50 [2] was > 23 µg/mL and the neutralization IC50 [3] was 2.37 µg/mL.

B10: Antibody 1.1.104-1 (antibody, human IgG1, kappa, V domains shown)
VH: QVQLLQSGAAVTKPGASVRVSCEASGYNIRDYFIHWWRQAPGQGLQWVGWINPKTGQPNNPRQFQGRVSLTRHASWDFDTFSFYMDLKALRSDDTAVYFCARQRSDYWDFDVWGSGTQVTVSS
VL: DIQMTQSPSSLSASVGDTATITCQANGYLNWYQQRRGKAPKLLIYDGSKLERGVPSRFSGRRWGQEYTLTINNLQPEDIATYFCQVYEFFGPGTRLDLKR
B10 showed a Virus Neutralization Potency [5] of 0.03 µg/mL, a Virus Neutralization Potency [6] of 0.19 µg/mL and a Virus Neutralization Potency [7] of 0.1 µg/mL. The Virus Neutralization Potency [8] was 0.02 µg/mL, the Virus Neutralization Potency [9] was 0.04 µg/mL and the Virus Neutralization Potency [10] was 7.9 µg/mL. The Virus Neutralization Potency [11] was 4.19 µg/mL, the Virus Neutralization Potency [12] was 0.28 µg/mL and the Virus Neutralization Potency [13] was 4.34 µg/mL. For the same binder, the Virus Neutralization Potency [14] was 2.8 µg/mL, the Virus Neutralization Potency [15] was 1.44 µg/mL and the Virus Neutralization Potency [16] was 0.16 µg/mL. The Virus Neutralization Potency [17] was 6.57 µg/mL, the Virus Neutralization Potency [18] was 0.67 µg/mL and the Virus Neutralization Potency [19] was > 80 µg/mL. For the same binder, the Virus Neutralization Potency [20] was 0.32 µg/mL, the Virus Neutralization Potency [21] was > 100 µg/mL and the Virus Neutralization Potency [22] was 4.34 µg/mL. It also gave a Virus Neutralization Potency [23] of 0.06 µg/mL, a Virus Neutralization Potency [24] of 0.28 µg/mL and a Virus Neutralization Potency [25] of 0.03 µg/mL. The Virus Neutralization Potency [26] was 1.1 µg/mL, the Virus Neutralization Potency [27] was 1.32 µg/mL and the Virus Neutralization Potency [28] was 0.36 µg/mL. For the same binder, the Virus Neutralization Potency [29] was 1.49 µg/mL, the Virus Neutralization Potency [30] was 10.6 µg/mL and the Virus Neutralization Potency [31] was 4.8 µg/mL. For the same binder, the Virus Neutralization Potency [32] was 4.27 µg/mL, the Virus Neutralization Potency [33] was 0.34 µg/mL and the Virus Neutralization Potency [34] was 1.22 µg/mL. It also gave a Virus Neutralization Potency [35] of 0.28 µg/mL, a Virus Neutralization Potency [36] of 2.33 µg/mL and a Virus Neutralization Potency [37] of 8.47 µg/mL. For the same binder, the Virus Neutralization Potency [38] was 1.82 µg/mL, the Virus Neutralization Potency [39] was 2.33 µg/mL and the Virus Neutralization Potency [40] was 0.1 µg/mL. For the same binder, the Virus Neutralization Potency [41] was 6.07 µg/mL and the Virus Neutralization Potency [42] was 2.87 µg/mL.
